One block for each substance: values may come before it.
What was measured:
[1] = biological target: human long form TSLP expressed on cell membrane; assay: FACS on cells expressing the membrane human long-form TSLP fusion protein, MFI; fit of a flat curve (Bottom 626.4, Top ~ 628.6), see non_binding; unit taken from the concentration axis
[2] = biological target: human long form TSLP expressed on cell membrane; assay: FACS on cells expressing the membrane human long-form TSLP fusion protein, MFI; ambiguous fit of a flat curve (Bottom 799.3, Top 857.9), see non_binding; unit taken from the concentration axis
[3] = biological target: human long form TSLP expressed on cell membrane; assay: FACS on cells expressing the membrane human long-form TSLP fusion protein, MFI; ambiguous fit of a flat curve (Bottom 609.8, Top ~ 596.1), see non_binding; unit taken from the concentration axis
[4] = biological target: membrane short-form huTSLP fusion protein (human); assay: FACS on cells expressing membrane short-form huTSLP, MFI; ambiguous fit of a flat curve (Bottom 692.9, Top 827.7), see non_binding; unit taken from the concentration axis
[5] = biological target: human long-form TSLP protein (Acro, tsp-h5255 or tsp-h52ha) (human) (UniProt Q969D9); assay: ELISA on coated human long-form TSLP, OD450; ambiguous fit of a flat curve (Bottom 0.07414, Top ~ 1078), see non_binding; unit taken from the concentration axis
[6] = biological target: human long form TSLP expressed on cell membrane; assay: FACS on cells expressing the membrane human long-form TSLP fusion protein, MFI; fit of a flat curve (Bottom 695.0, Top 1001), see non_binding; unit taken from the concentration axis
[7] = biological target: human long form TSLP expressed on cell membrane; assay: FACS on cells expressing the membrane human long-form TSLP fusion protein, MFI; ambiguous fit of a flat curve (~ 906.7, ~ 1190), column headed IC50, see non_binding; unit taken from the concentration axis

Chain of human long form TSLP expressed on cell membrane (fusion protein, as listed by the source): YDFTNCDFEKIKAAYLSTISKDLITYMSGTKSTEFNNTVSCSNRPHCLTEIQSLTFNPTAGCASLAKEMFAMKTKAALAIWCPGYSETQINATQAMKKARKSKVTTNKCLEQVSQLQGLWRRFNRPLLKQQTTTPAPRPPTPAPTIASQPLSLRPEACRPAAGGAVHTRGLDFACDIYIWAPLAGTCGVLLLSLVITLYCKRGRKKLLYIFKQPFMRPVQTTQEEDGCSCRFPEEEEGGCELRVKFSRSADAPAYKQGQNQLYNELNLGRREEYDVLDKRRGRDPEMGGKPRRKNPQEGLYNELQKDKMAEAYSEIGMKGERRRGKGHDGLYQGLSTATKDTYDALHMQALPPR
Chain of human long-form TSLP protein (Acro, tsp-h5255 or tsp-h52ha) (human) (Q969D9 29-159 R127A/R130A limits assumed): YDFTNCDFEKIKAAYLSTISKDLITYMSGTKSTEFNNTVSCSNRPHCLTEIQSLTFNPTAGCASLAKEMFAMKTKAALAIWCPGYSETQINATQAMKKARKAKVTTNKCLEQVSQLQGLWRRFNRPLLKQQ
Chain of membrane short-form huTSLP fusion protein (human) (chain, as listed by the source limits assumed): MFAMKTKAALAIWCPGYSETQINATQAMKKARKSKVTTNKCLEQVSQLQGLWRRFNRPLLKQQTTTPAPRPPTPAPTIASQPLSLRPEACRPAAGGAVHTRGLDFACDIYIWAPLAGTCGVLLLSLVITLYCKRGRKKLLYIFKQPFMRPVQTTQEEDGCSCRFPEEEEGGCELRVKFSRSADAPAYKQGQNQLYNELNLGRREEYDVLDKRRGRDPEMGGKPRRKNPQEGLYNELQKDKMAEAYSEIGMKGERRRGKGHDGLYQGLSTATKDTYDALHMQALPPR

EC50 [1]: 5.86 µg/mL
EC50 [2]: 0.0117 µg/mL
EC50 [3]: 0.322 µg/mL
Substance: IgG2 Isotype (antibody)

EC50 [4]: 0.0115 µg/mL
EC50 [5]: 40.8 µg/mL
Substance: Isotype mAb (antibody)

EC50 [6]: 21.1 µg/mL
EC50 [7]: 0.0411 µg/mL
Substance: Isotype (antibody)
